The target of one data set is translin (TB-RBP) (Mus musculus, UniProt Q62348 1-228). Description: fluorescence polarization.
Data set [1] deals with translin (in translin-trax complex);trax (translin-associated factor X) (Mus musculus;Mus musculus, UniProt Q62348;Q9QZE7 1-228;1-290, |). The data set can be described thus: fluorescence polarization.

Consider seven molecules from paper PMC2901993 (Biochemical and biophysical research communications, 2010).

translin (TB-RBP), sequence (Q62348 whole entry): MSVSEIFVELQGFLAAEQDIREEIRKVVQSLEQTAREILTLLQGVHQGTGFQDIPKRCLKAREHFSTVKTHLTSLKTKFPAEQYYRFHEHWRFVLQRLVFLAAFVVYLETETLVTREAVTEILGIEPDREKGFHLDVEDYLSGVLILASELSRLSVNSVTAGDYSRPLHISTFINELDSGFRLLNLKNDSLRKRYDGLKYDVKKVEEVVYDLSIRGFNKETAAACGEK
translin (in translin-trax complex);trax (translin-associated factor X), sequence (Q62348 whole entry, chain 1 of 2): as the sequence (Q62348 whole entry) above
translin (in translin-trax complex);trax (translin-associated factor X), sequence (Q9QZE7 whole entry, chain 2 of 2): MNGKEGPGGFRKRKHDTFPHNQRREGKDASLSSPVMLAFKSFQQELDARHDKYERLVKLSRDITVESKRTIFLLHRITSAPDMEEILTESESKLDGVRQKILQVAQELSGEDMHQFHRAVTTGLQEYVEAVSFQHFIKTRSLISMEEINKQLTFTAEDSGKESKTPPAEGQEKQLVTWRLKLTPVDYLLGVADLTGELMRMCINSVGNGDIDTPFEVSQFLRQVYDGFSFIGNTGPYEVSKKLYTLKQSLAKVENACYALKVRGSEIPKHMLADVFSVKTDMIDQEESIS

Take AGAGGAGGAGGAGGAGGAGGAGGAG (ssRNA) [rGAG]: binding with translin (TB-RBP) was characterised by a dissociation constant (Kd) of 500 nM.
Consider TCTGAGCCCTGAGCTGCCAAGGAGCCACGAGATCTGAGT (ssDNA) [dPRM-2], for which the Kd in the data set with translin (TB-RBP) is 10000 nM; in data set [1] it was 4000 nM.
As for UCUGAGCCCUGAGCUGCCAAGGAGCCACGA (ssRNA) [PRM-2(1-30)], the Kd with translin (TB-RBP) was determined as 200 nM.
As for UCUGAGCCCUGAGCUGCCAAGGAGCCACGAGAUCUGAGU (ssRNA) [PRM-2], the Kd in the data set with translin (TB-RBP) turned out to be 200 nM; in data set [1] it was 40000 nM.
UCUGAGCCCUGAGCUGCCAAGGAGCCACCACAUCUGAGU (ssRNA) [PRM-2 Variant 2] gave a Kd with translin (TB-RBP) of 200 nM.
UCUGAGCCCUCACCUGCCAAGGAGCCACCACAUCUGAGU (ssRNA) [PRM-2 Variant 3] registered an equilibrium dissociation constant (Kd) in the data set with translin (TB-RBP) of 300 nM.
UCUGAGCCCUCACCUGCCAAGGAGCCACGAGAUCUGAGU (ssRNA) [PRM-2 Variant 1] had a Kd with translin (TB-RBP) of 1000 nM.

In general, Kd refers to the free concentration of one partner at which half of the binding sites on the other are occupied at equilibrium, for simple one-to-one binding.
